The experiment has as its target feline interleukin-31 (fIL-31) displayed on the yeast surface (pETconNK_fIL-31) (feline). Description: flow cytometry on cells. A general note: Flow cytometry measures light scatter and fluorescence of single cells or particles in a stream.

On to “soluble feline oncostatin M receptor extracellular domain, Fc fusion (fOSMR-ECD)”, for which the Kd – broadly, the concentration at which binding is half-saturated – stood at 10.3 nM; the percent decrease of the binding of biotinylated fIL31RA-1FNIII amounted to 65%; the percent decrease of the binding of biotinylated fOSMR-ECD (itself) was found to be 97%.
